{
  "source": "paper PMC10944878",
  "about": "“Formation of HopQ1:14-3-3 complex in the host cytoplasm modulates nuclear import rate of Pseudomonas syringae effector in Nicotiana benthamiana cells” (Frontiers in Plant Science, 2024)",
  "binders": {"B1": {"name": "Nt14-3-3a protein tagged with Strep-tag II (natural protein, UniProt Q75ZE5 1-255, looked up)", "chain": "MASPREENVYLAKLAEQAERYEEMVEFMEKVVGAGDDELTVEERNLLSVAYKNVIGARRASWRIISSIEQKEESRGNEDHVASIKTYRSKIESELTSICNGILKLLDSKLIGTAATGDSKVFYLKMKGDYYRYLAEFKTGAERKEAAENTLSAYKSAQDIANVELAPTHPIRLGLALNFSVFYYEILNSPDRACNLAKQAFDEAIAELDTLGEESYKDSTLIMQLLRDNLTLWTSDMQDDGTDEIKEPSKAEEQQ", "notes": "14-3-3a protein, Nt14-3-3a, GenBank BAD12168.1; also called 14-3-3 dimer; not shown: Strep-tag II, C-terminal, kept"}},
  "key": {"[1]": {"target": "T1, HopQ1-6xHis, in vitro phosphorylated by AtCPK3 (Pseudomonas syringae pv. phaseolicola …, UniProt Q48BD8 1-447, in vitro phosphorylated by AtCPK3; phosphorylated residues of this sample not given)", "T1 construct": "HopQ1 (Hrp outer protein Q), type three effector of Pseudomonas syringae pv. phaseolicola 1448A, GenBank AAZ37975.1; also called phosphorylated HopQ1; recombinant HopQ1; source: phosphorylated in vitro by GST-AtCPK3, then ion-exchange and size-exclusion chromatography", "T1 sequence": "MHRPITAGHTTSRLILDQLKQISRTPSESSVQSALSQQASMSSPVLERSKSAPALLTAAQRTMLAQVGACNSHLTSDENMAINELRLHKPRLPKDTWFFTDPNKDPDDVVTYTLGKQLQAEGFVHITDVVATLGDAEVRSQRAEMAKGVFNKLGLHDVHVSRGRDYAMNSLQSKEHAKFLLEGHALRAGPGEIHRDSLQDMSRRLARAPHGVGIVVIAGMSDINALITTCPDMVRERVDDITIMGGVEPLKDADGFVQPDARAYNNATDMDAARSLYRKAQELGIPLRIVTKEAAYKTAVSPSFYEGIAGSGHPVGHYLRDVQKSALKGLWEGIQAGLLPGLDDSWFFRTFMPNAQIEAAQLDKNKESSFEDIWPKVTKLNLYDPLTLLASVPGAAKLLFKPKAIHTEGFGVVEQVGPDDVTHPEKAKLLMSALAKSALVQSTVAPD", "test": "SEC-MALS; phosphorylated HopQ1 mixed with Nt14-3-3a at a 1:2 mass ratio, 2 h at 4°C; Superdex 200 10/300GL, 100 mM Tris-HCl pH 8.0, 150 mM NaCl, 5 mM DTT", "details": "both partners purified"}, "[2]": {"target": "the molecule itself", "test": "SEC-MALS; phosphorylated HopQ1 mixed with Nt14-3-3a at a 1:2 mass ratio, 2 h at 4°C; Superdex 200 10/300GL, 100 mM Tris-HCl pH 8.0, 150 mM NaCl, 5 mM DTT"}},
  "data": [
    {"binder": "B1", "values": [
      {"measurement": "stoichiometry N", "setting": "[1]", "value": "2 14-3-3a per HopQ1"},
      {"measurement": "stoichiometry N", "setting": "[2]", "value": 2}
    ]}
  ]
}
